This data set is described as follows: soluble on expression in E. coli; label from the status in PepcDB or PDB records.
With “MVTSPPTSSPSQRSYSPQDWLRGYQSQPQEWDYWVEDVEGSIPPDLQGTLYRNGPGLLEIGDRPLKHPFDGDGMVTAFKFPGDGRVHFQSKFVRTQGYVEEQKAGKMIYRGVFGSQPAGGWLKTIFDLRLKNIANTNITYWGDRLLALWEGGQPHRLEPSNLATIGLDDLGGILAEGQPLSAHPRIDPASTFDGGQPCYVTFSIKSSLSSTLTLLELDPQGKLLRQKTETFPGFAFIHDFAITPHYAIFLQNNVTLNGLPYLFGLRGAGECVQFHPDKPAQIILVPRDGGEIKRIPVQAGFVFHHANAFEENGKIILDSICYNSLPQVDTDGDFRSTNFDNLDPGQLWRFTIDPAAATVEKQLMVSRCCEFPVVHPQQVGRPYRYVYMGAAHHSTGNAPLQAILKVDLESGTETLRSFAPHGFAGEPIFVPRPGGVAEDDGWLLCLIYKADLHRSELVILDAQDITAPAIATLKLKHHIPYPLHGSWAQT”, the “soluble on expression in E. coli” value is listed as “soluble”.
With “MVSENSDATNVETTALALKILVAGGFGVGKTTMVGAVSEIRPLRTEELLSEAGQSVDDTDGVDQKVTTTVAMDFGRITIRSGLSLYLFGTPGQDRFWFLWDELSQGALGAVVLADTRRLEDCFPAVDYFEHRHIPFVVAVNCFAGARTYGAHDVSRALDLDQGTPVVLCDARDRDSGKEVLIRLVEYAGRMHTARLLDSVGLEHHHHHH” the entry was “not soluble”.
“MLEKSFLKSKQLFLCGLGVLMLQACTCPNTSQRNSFLQDVPYWMLQNRSEYITQGVDSSHIVDGKKTEEIEKIATKRATIRVAQNIVHKLKEAYLSKTNRIKQKITNEMFIQMTQPIYDSLMNVDRLGIYINPNNEEVFALVRARGFDKDALSEGLHKMSLDNQAVSILVAKVEEIFKDSVNYGDVKVPIAM”: the “soluble on expression in E. coli” value is recorded as “not soluble”.
To “MTIKIALLGFGTVAKGIPYLLKENQHKLLSLEGEDIVIDKVLVRDNESRQRFINQGFTYNFVTEINTILQDSQIDIVVELMGGIEPAKTYLSQALGFGKHIVTANKDLIALHGKELMDLADARGLALFYEGAVAGGIPILRTLSHSFASDKMTRLLGILNGTSNFMLTKMFEEGW” belongs “not soluble”; to “MGSDKIHHHHHHMKFKQDYFDQLSGFYSQVTPQGLPRPQWLAWSEDAAALIGLKQPDDELLQGLAGNQAIPGASYYAQVYSGHQFGGYSPQLGDGRSIILGEAEGPQGYWDVALKGAGMTPYSRHGDGRAVMRSAVREFLVSEALHHLNIPTTRALAVIGSDLPVWRETQETAAITVRLAKSHIRFGHFEFFCHSEQGSKDKLKQLLDFTLSQHYPELSRDQAGYIAWFNRVVADTAKLIAHWQAVGFAHGVMNTDNMSILGDSFDFGPFAFLDTFEEDFICNHSDPNGRYAFGQQPGVGLWNLQRLAQALVPIIASDDLIAALNTYQHHLVQAYLVLMRDKLGIKLVEPAGSERDEADLQLIGGFTLLMEANRLDHTNTWRRFAQLDPNSQHSSLRDDFIDLAGFDTWYQAYQERLGQVSDVAGWQAVRAQVNPKYVLRNYLAQEAIIACEEGNTQPLAELHQLLTRPFDEQPEKEAYAKRPPEWGQGLIMSCSS”, “not soluble”.
With “ITLAVKVGMIQLCGCSGCHISLLDLHDKLLEVLPNLEIVYAPIIADPKEIPEGIDVFLVEGGIRNEHDEHLIHEIREKSKIVIAWGTCAAYGGIPGLGNLYKKEELLNYVYSTDSTENKGEIPSEEIPPLEEYVKPIKDFIKVDYTIPGCPPTPKMIADAIIALLNGEEPKLPTKIVC” the entry was “not soluble”; with “MSDALDDENVLCFRYKSYYIKDDGSRIDTLNEERIKHIVDFTLDKYLDATQNTPKFDNFENPVKEGFNSIFACESKEAAIEYYKEFKKQIEQKKLPIKIASIIAQTKVVMNKKLV”, “soluble”; with “ATMPLSPLLTAVIETTLNTLINDDPALGRKLLRLKGKVISLHLRELNQSLTFVFSQRIDVMTGFEGQPDCYLALNLSILPQLREQANITQLIKQDKLELEGDIQLAQKFSELMTDCKPDVEEWLSRITGDVVAHSVVHGVKSIVGALKQQAHKHQNHLAQVLTEEWRIAPPPLEIAYFCDQVDDVKSHAARLEARLNQLLEKA”, “not soluble”.
To “MTEIRVHQGDLPNLDNYRIDAVAVDTETLGLQPHRDRLCVVQLSSGDGTADVIQIAKGQKSAPNLVRLLSDRDITKIFHFGRFDLAILAHTFGVMPDVVFCTKIASKLTRTYTDRHGLKEICGELLNVNISKQQQSSDWAAETLSRAQIEYAASDVLYLHRLKDIFEERLKREERESVAKACFQFLPMRANLDLLGWSEIDIFAHS” belongs “not soluble”.
In the case of “MGSDKIHHHHHHMFSLEQLEAFMETVESGSFSNAARQLKKAQSVVSQHVMNLEIDCGVELFDRSGRYPVLTAEGSKLLPYARATILQHRRLKHTALSLFSRQSSEVCLAMDEGIPIQRISEIIQLLESDFPNIELEFLSASSIDIIDMVHSGRASTGLIFSELSMPSSIDFESIGVIEFDLYVASSHPLAKSVAPNMDSLRLYRQLCIRSRNTKTSSFQQVFSPDVWYADNYYVLLELALQGHGWCLLPEHMASSSVSSGNLTRVPIEFEQIGWYANVDVIQHQDKSSLPLLKRLRQLFRELLVGQK”, the “soluble on expression in E. coli” value is given as “not soluble”.
To “MSLSEEDLEKFLIKELTLQGYERLNLSDINDLESNFKLQLQRLNNISFSPTEWESFYRQNITNLKLTFEDKTKMLQSDGFTLTLEKEDGSKKNIILIDRVNPINNHLQVISQLKNENGEFKNRYDVSILVNGLPLVHIELKRRGVNLKEAFNQIRRYQKESFLEGNALYEFVQIFIISNGTLTKYYSNTNEGHHHHHH” belongs “soluble”; to “MGSDKIHHHHHHMVEKLKPRYSVVWTNKIAEVPQNAWNALAMPLKTPFLEWEWLNNLETSQSATAKTGWLPNHLTLWRDRTLIAAAPLYLKGHSSGEFVFDHQWAELADRIGVQYYPKLLGMTPFTPAEGYRFLIAPGEDEDEITAMMVHEIDTFCSKNRISGCHFLYVDPQWRPMLERHGFTTWLHHSYVWENAGFKTFDDYLKVFNANQRRNIKRERKAVEKAGLRLQPLSGDEIPYSLFPSMYQFYADTCDKFGWWGSKYLTQRFFEQLHNDYRHRVLFVAAYSEEDNSHPLGMSFCLFKGDKLYGRYWGSFQEIDCLHFDACYYAPIEWAIANGIQIFDPGAGGRHKKRRGFPAMPNHSLHRFYNNRLGQIIRPYIKEVNQLEQQEIEAINAELPFSNRDS”, “not soluble”.
In the case of “TKDFGYSFNANYATNTNEVKALGPGNAPIISTGSVDHAYYITKVGEPIGCYYLLVQDGIFSNEEELKKYPHFSNTQPGDFRFVDVDGDGVMDLDKDRTIVGNYMPDFTYGFGGKVWYKGIDLDFNFQGVYGNEILNLNRRYIDNLEGNTNGTTIALNRWKSADNPGNGQVNRANRKSKGYNGRTSTWHLEDGSYLRLQNVTLGYTLPQNLTRRFFVEKLRVYVSGQNLWTSTNYGGYNPEVNARPSNSLSPGEDYGTYPLAKTFLFGLNITL”, the “soluble on expression in E. coli” value is “not soluble”.
To “MKGLFLIFHGFEAFNGISKKIRYQVKALKECGLEMHTCWLDDTDNHKRRMVDESIIADYGFGIKGKILKRIEFDSIVHYVQKENIDFIYVRYVHNASPFSIRLMKLLKKTGARIVMEIPTYPYDQEYKGLPFVYQRILFIDKCFRQHLARYVDKIVTFSDYDIIWNRPTIRISNGIDFSEIPLRGPKNDTAHSLQLIAVATMHPWHGFDRVIAGMANYYRTHTDTHDYKVYLNIVGFGVPELVDSYKKDVAKHQLEKYIIFHSALYGKELDAVFEQSDMGIGSLARHRSGIDKIKTLKNREYAARGIPFVYSETDDDFEHQPYILKAAPDDSPLDIEKVIRFYQSLKTTPLQIRMSIEQSLSWKAQMQIVINETFE” belongs “not soluble”.
Consider “MSLNITPHDQTGSQLQDSTLSQRAIQTVRYINNINDWRYNNPSQKDGVIPDSAFGWSSLPELHNVLQADRVYVYQPDQPGLMSALLAQSRHSALVGKVVARRLLDSFGNDMQVNVPDSIADGSLVYLNEGHHHHHH”, for which the “soluble on expression in E. coli” value is reported as “soluble”.
With “MSLKTLLFDVDDTLLDFKLAEKKALHALFEEENVPFTSEVESTYHRINQGLWRSFEEGKITKDVLLDTRFGLLFDAFNREVDSVKMGENYREYLSQGHDLLGNSQRILEKLAPHYDLYIVTNGVAKTQYRRLEDSKLMPYFKDIFVSEEVGYQKPMKEYFDFVFERIPNFSREKTMIIGDSLHSDIQGGQQAKIQTVWLNPTSAPATPTIQPNYTIQQLDELLPILGHEGHHHHHH”, the “soluble on expression in E. coli” value was “soluble”.
To “MGKRNLDETMNESTVSEANGDATAPTTEKDEYQALCELVNPIAQPLANRKLAKKVYKLIKKASAGDKTLREGIKDVQKELRRNEKGICILAGNVSPIDVYSHIPGICEEKEIPYVYIPSREQLGLAVGHRRPSILIFVKPSGDFKELYDEVAEALRHLTVEAA” belongs “not soluble”.
To “MTDKQYSLDDIRLRLNELDDQLLNLLSERRKMSIEVAKSKVETAKPVRDPAREQQLLVKLINAGKEKYQLDPQYITKIFHTIIEDSVLLQQSYLQNLANPQSRKPLARVAFLGAKGSYSHLATREYFSRKNTELIELNCDHFKEVARTVESGHADYGVLPIENTSSGSINEVYDLLQHTTLYIVGELTQPIEHCLVATQEIRLEDLKVLYSHPQPHQQCSEFLSRLKGVKLESCASTADAMKKVQELNRADVAAIGNSASGKLYGLQPIQGNIANQTENHTRFIVVARKPVDVSPQIPAKTTLIMSTSQEAGSLVSTLLVLQRYGINMTKLESRPIMGNPWEEMFYVDLEAHIDSDEMQQALAELTQLTRHLKVLGCYPSENVKPTQVKFI” belongs “not soluble”; to “MKKIKKAIIPAAGLGTRFLPATKAMPKEMLPILDKPTIQYIVEEAARAGIEDIIIVTGRHKRAIEDHFDSQKELEMVLKEKGKSELLEKVQYSTELANIFYVRQKEQKGLGHAISSARQFIGNEPFAVLLGDDIVESEVPAVKQLIDVYEETGHSVIGVQEVPEADTHRYGIIDPLTKNGRQYEVKKFVEKPAQGTAPSNLAIMGRYVLTPEIFDYLKTQKEGAGNEIQLTDAIERMNNDNQVYAYDFEGERYDVGEKLGFVKTTIEYALKDDSMREELTRFIKALGL”, “not soluble”.
On to “MSLEHQLANVYETKIRRNEHPTIPRPLVTFEPAAIRSKPSSPISELEVFTSEQLIKVTSSIRWKTLSSAVLGAGFKWHQTFVNRHVSKDYYCDDVEREFQTFLSNVGVDGTDALGMMTAAILEDVAITEATYESFKVRVFVTAGISNAVDAAKAHLRKRNEATVGTINTWVFIEGTLPDAAYVQALMTATEAKGRALAEKEILDPVTGTLATGTSTDSVMIASSQTGTYFPYAGTITPLGQAIGKLVYDATIQAVTDNEKRRLEREGHHHHHH”, for which the “soluble on expression in E. coli” value is “soluble”.
With “MKLYYTPGSCSLSPHIVLRETGLDFSIERIDLRTKKTESGKDFLAINPKGQVPVLQLDNGDILTEGVAIVQYLADLKPDRNLIAPPKALERYHQIEWLNFLASEVHKGYSPLFSSDTPESYLPVVKNKLKSKFVYINDVLSKQKCVCGDHFTVADAYLFTLSQWAPHVALDLTDLSHLQDYLARIAQRPNVHSALVTEGLIKE” the entry was “soluble”; with “MAELKALQNGSDIRGIALDTEEQTATLTATAVAEIAVGVVRWLQDKKQLPRKAQQRLTIAIGHDSRLTAEPIKQALVDTFLSLGIQVIDVGLATTPAMFMATQFPTLQCDAAIMITASHLPYYFNGLKFFTAEGGAEKEDIRYILSHTDPLTANENGTLMKQELLPIYAEHLVEKIRQGIHSPEEKPLQGFRIIVDAGNGAGGFFAEQVLQVLGADTTGSQFLEPDGHFPNHVPNPDNSEAMKSIQTAVLANQADLGIIFDTDVDRSAVVDQSGEVLNRNNLIAVLAAIVLKEAPGSYIVTNSPTSSHLKTFIEEKGGQQIRYISGYRNVINKMIELNHGGFQTPLAIETSGHAAFQENYNLDDGAYVVAKILMLLPELKQNNQTLGDLIATLKQPAETNEFRFKITAEDVTCYGQQVLRDFELFVENQADFAVDRENQEGVRGNVSGQYGSGWFLLRLSLHEPLLVLQVENDQSDKNACVIEKIATFLQKYEEIDSQQIEK”, “not soluble”.
